Assay results taken from patent publication US20050064533.

Key:
[1] = molecular target: recombinant C-terminal 90 amino acids of human HIF-1a, C of the hydroxylation motif changed to alanine, Q16665
[2] = molecular target: recombinant C-terminal 90 amino acids of human HIF-1a, D of the hydroxylation motif changed to alanine, Q16665
[3] = molecular target: recombinant C-terminal 90 amino acids of human HIF-1a, conserved G 5 amino acids C-terminal to the target asparagine changed to alanine, Q16665
[4] = molecular target: recombinant C-terminal 90 amino acids of human HIF-1a, glutamic acid (E) of the hydroxylation motif changed to alanine, Q16665
[5] = molecular target: recombinant C-terminal 90 amino acids of human HIF-1a, tyrosine (Y) of the hydroxylation motif changed to alanine, Q16665
[6] = molecular target: recombinant C-terminal 90 amino acids of human HIF-1a, valine preceding the target asparagine changed to alanine, Q16665
[7] = molecular target: recombinant C-terminal 90 amino acids of human HIF-1a, wild type, Q16665
Sequence of recombinant C-terminal 90 amino acids of human HIF-1a, wild type, Q16665 (Q16665 737-826): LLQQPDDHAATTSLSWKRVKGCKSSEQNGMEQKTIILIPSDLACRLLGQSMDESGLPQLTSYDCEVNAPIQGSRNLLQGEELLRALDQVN

Sequence of recombinant C-terminal 90 amino acids of human HIF-1a, D of the hydroxylation motif changed to alanine, Q16665 (Q16665 737-826 D799A): as the sequence (Q16665 737-826) above, with D63A counted along it
Sequence of recombinant C-terminal 90 amino acids of human HIF-1a, valine preceding the target asparagine changed to alanine, Q16665 (Q16665 other isoform, or with tags, fused parts or gaps): as the sequence (Q16665 737-826) above, with V66A counted along it
Sequence of recombinant C-terminal 90 amino acids of human HIF-1a, conserved G 5 amino acids C-terminal to the target asparagine changed to alanine, Q16665 (Q16665 other isoform, or with tags, fused parts or gaps): as the sequence (Q16665 737-826) above, with G72A counted along it
Sequence of recombinant C-terminal 90 amino acids of human HIF-1a, tyrosine (Y) of the hydroxylation motif changed to alanine, Q16665 (Q16665 737-826 Y798A): as the sequence (Q16665 737-826) above, with Y62A counted along it
Sequence of recombinant C-terminal 90 amino acids of human HIF-1a, C of the hydroxylation motif changed to alanine, Q16665 (Q16665 737-826 C800A): as the sequence (Q16665 737-826) above, with C64A counted along it
Sequence of recombinant C-terminal 90 amino acids of human HIF-1a, glutamic acid (E) of the hydroxylation motif changed to alanine, Q16665 (Q16665 other isoform, or with tags, fused parts or gaps): as the sequence (Q16665 737-826) above, with E65A counted along it

B1: MBP (maltose binding protein) fused to wild type HIF Asparagine Hydroxylase (HNH) (protein)
chain: MAATAAEAVASGSGEPREEAGALGPAWDESQLRSYSFPTRPIPRLSQSDPRAEELIENEEPVVLTDTNLVYPALKWDLEYLQENIGNGDFSVYSASTHKFLYYDEKKMANFQNFKPRSNREEMKFHEFVEKLQDIQQRGGEERLYLQQTLNDTVGRKIVMDFLGFNWNWINKQQGKRGWGQLTSNLLLIGMEGNVTPAHYDEQQNFFAQIKGYKRCILFPPDQFECLYPYPVHHPCDRQSQVDFDNPDYERFPNFQNVVGYETVVGPGDVLYIPMYWWHHIESLLNGGITITVNFWYKGAPTPKRIEYPLKAHQKVAIMRNIEKMLGEALGNPQEVGPLLNTMIKGRYN
- hydroxylation in an in vitro hydroxylation assay [1]: an up to 50% decrease in hydroxylation of the target aspargine
- hydroxylation in an in vitro hydroxylation assay [2]: an up to 50% decrease in hydroxylation of the target aspargine
- hydroxylation in an in vitro hydroxylation assay [3]: an approximately 50% decrease in hydroxylation
- hydroxylation in an in vitro hydroxylation assay [4]: The glutamic acid (E) residue is more important or efficient hydroxylation than D or C
- hydroxylation in an in vitro hydroxylation assay [5]: Substituting alanine in place of tyrosine (Y) has little effect
- hydroxylation in an in vitro hydroxylation assay [6]: altering this valine to alanine results in very low levels of hydroxylation
- hydroxylation assessed by counting liberated 14CO2 [7]: the degree of hydroxylation for each mutant normalised to the level observed for the wild type HIF-1α CAD sequence
